# Test: soluble on expression in E. coli; label from the status in PepcDB or PDB records
row,Sequence,soluble on expression in E. coli
1,MQYGAIVVTFNRKQLLIESITALLNQTVPPAKIIIIDNHSTDGTKAELQTADILANPSVDYRYLTKNIGGAGGFARGMQIAAADPNLDWASMSDDDAIFEPDYFEKLIAYQQDHPNRQILTGSVYIEDGRLQADQRNRFTNWSTFQAQAVPEREYRGNFEFDQYTFCGVFMSVAVIKQVGVADAGYFIWWDDCEYAVRTAKLSRPVNVSAAKLIHKTALPSLDFKSKFVPDWRLYYGQRNRLITIKRWRANSLVSLGWLLGFYARLAIQLCGPFYRGYRKMVIRVYLEALRDASREREGLNPNFMPGQKFLEHHHHHH,soluble
2,MRAAQALPQTAHVSHFGHGPRLVLALHCTIAHSGAWKGLTRILGEEAQFTAPDMLSHGRSPDWDGQGCFQDRILGIARTCLTEAPMDVIGHSFGATVALRLAVEHPERVRSLTLIEPVFFAVARQDAPELIDSHASDAQPYLDALAAGDHALAARLFNRMWSTADSPRWPDLPEATRAAMIRGIHVVPTMDAALFDDTAGLLAPGRLDRAAMPVLLLRGALTHPVMQAISMGLQRRLPDAVEMVIEGAGHMLPITHPDETAAHIRALWSRTG,not soluble
3,MRAILILLDGLGDRASEILNNKTPLQFAKTPNLDRLAENGMCGLMTTYKEGIPLGTEVAHFLLWGYSLEEFPGRGVIEALGEDIEIEKNAIYLRASLGFVKKDEKGFLVIDRRTKDISREEIEKLVDSLPTCVDGYKFELFYSFDVHFILKIKERNGWISDKISDSDPFYKNRYVMKVKAIRELCKSEVEYSKAKDTARALNKYLLNVYKILQNHKINRKRRKLEKMPANFLLTKWASRYKRVESFKEKWGMNAVILAESSLFKGLAKFLGMDFIKIESFEEGIDLIPELDYDFIHLHTKETDEAAHTKNPLNKVKVIEKIDKLIGNLKLREDDLLIITADHSTPSVGNLIHSGESVPILFYGKNVRVDNVKEFNEISCSNGHLRIRGEELMHLILNYTDRALLYGLRSGDRLRYYIPKDDEIDLLEG,not soluble
4,MRAKKRKFLQKEELSKLLQSLDMSQIGFGWFVMLAAKTGMRYAEALAITPADFDWTAQTISINKTWDYKYNKGFAKTKTLSSVRTIKIDWQIVGQFKPLIKDFPEDEPIFVEKFGDGTYKRQFNSTINNFLAVKCNETGITQISFHALRHTHASVLLAEGVSIHTISARLGHADVGVTQETYAHVLDELQKKDDQKMLSVLMQIALEHHHHHH,not soluble
5,MRAVLGGEDDGGVGLRVIDNNEVSHGISVNFDGEITYHEQDGYPDDPSERTRAGNIHVNQARRFAKYWVYRKRGYDTIPPTENPDRIIAAAIALTPLEPETAETHLGDFYQHFQSINGTADSPVEMPEGVPEQGGGTVYQKDIYVGLEDETLGTIAADLLADPKLMELVGKSVGVGGESLVGAEYVPTFKELIAEASDRDSDSLPSLSEGLLLEATSGIHVHWDDPPGEYHTQWGDQPDLGRDPAARIEIFPFEPDSITELQAQVARHLLCQIRDCYLTMGIAPPEQFRILGHGRHEATGLYASYDIYDEYFDPNAEIDTWYVENTPEGAYEHEPANKNVQTKA,not soluble
6,MRCPRCHHNNSRVIDSRQADDGRAIRRRRECENCSYRFTTFERIEAAPLLVIKKNGDREEFNRDKILRGLIRSAEKRPVAMEQMVQIVDNVENRVRSLGENEVSTTLIGEYVMEDLVNLDEIAYIRFASVYRQFKDMSVFLKELQDIVDKAKSSSPDSEN,not soluble
7,MRDLSHALGSGEPYPGDPPAAVTPHATMAADGYRVSAVACSTHSGTHIDAPSHLLADGRSLDAFDVSAFRFDAHVVDCTGYGPEDAIPVDRVPALDDHDMVVFNTGTAADWGRPEYYEHPHLSVAAAERCADAGCAVAVDAPSVDPTRTAPAGESSDAAAYPAHRALLGAGALIVENVTNLDGLPERVPVQAYPLPVAADGAPARVIAAPLEHHHHHH,soluble
8,MRDRVRWRVLSLPPLAQWREVMAALEVGPEAALAYWHRGFRRKEDLDPPLALLPLKGLREAAALLEEALRQGKRIRVHGDYDADGLTGTAILVRGLAALGADVHPFIPHRLEEGYGVLMERVPEHLEASDLFLTVDCGITNHAELRELLENGVEVIVTDHHTPGKTPPPGLVVHPALTPDLKEKPTGAGVAFLLLWALHERLGLPPPLEYADLAAVGTIADVAPLWGWNRALVKEGLARIPASSWVGLRLLAEAVGYTGKAVEVAFRIAPRINAASRLGEAEKALRLLLTDDAAEAQALVGELHRLNARRQTLEEAMLRKLLPQADPEAKAIVLLDPEGHPGVMGIVASRILEATLRPVFLVAQGKGTVRSLAPISAVEALRSAEDLLLRYGGHKEAAGFAMDEALFPAFKARVEAYAARFPDPVREVALLDLLPEPGLLPQVFRELALLEPYGEGNPEPLFLLFGAPEEARRLGEGRHLAFRLKGVRVLAWKQGDLALPPEVEVAGLLSENAWNGHLAYEVQAVDLRKPEALEGGIAPFAYPLPLLEALARARLGEGVYVPEDNPEGLDYAWKAGFRLLPPEEAGLWLGLPPRPVLGRRVEVALGREARARLSAPPVLHTPEARLKALVHRRLLFAYERRHPGLFSEALLAYWEVNRVQEPAGSP,soluble
9,MRDVPNIGFISLGCPKNLVDSERILTELRSDGYNIIPSYENADLVIVNTCGFIDSAVQESLEAVGEALKENGKVIVTGCLGAKENQIREVHPKVLEITGPHSYEAVMQHVHKYVPRPERNMYTSLVPAQGVKLTPKHYAYLKISEGCDHRCTFCIIPSMRGDLDSRPIVQILDEAKRLADSGVKELLIVSQDTSAYALDQTKENQNKTVFWNGVPIKNNLISLCEQLATLGIWIRLHYVYPYPHVDNLIPLMAEGKILPYLDIPLQHASPKILKAMKRPGSIDRTLERIKQWREICPELTLRSTFIVGFPGETEEDFQMLLDFLTEAQLDRVGCFKFSPVDGAVATEMAEQVPEEVKEERFHRFMQVQQRISVARLQQKIGKTLAIIIDEIDEYGIIGRSMADAPEIDGVVYVDNISQQAVTVGQIILVTITNADEYDLWGTYLEHHHHHH,soluble
10,MRDYSELEIFEGNPLDKWNDIIFHASKKLSKKELERLLELLALLETFIEKEDLEEKFESFAKALRIDEELQQKIESRKTDIVIQSMANILSGSGSGSGSSGNPLDKWNDIIFHASKKLSKKELERLLELLALLETFIEKEDLEEKFESFAKALRIDEELQQKIESRKTDIVIQSMANILSGLEHHHHHH,soluble
11,MREETFPGDIAQYFSVIHRAFLKDTKGEYAKYDLNPTNAYILLYLFFNKNSSQSELAQKLVINKGQITRETTKLLSLNFISKEISSKNRTTNVIAISSDGKKVIKKIIDIRNQWWEEKLKLSGVKTNSEFLDSLKKLESILN,not soluble
12,MREETKCALIIDESLPLGLIANTAAILGAALGKNKPDLIGETVTDGSGIDHLGIVKIPIPILKGNAELLHQLSQKLLTDEFNDILTVDFTDVAQSIHTYEAYIEAFQSTAASDYRYFGIGICGDKKKVARLTGSLGLLRLEHHHHHH,soluble
13,MRELQADFVKPARIDILLDMPPASRDLQLKHSWNSEDRSLNIFVKEDDKLTFHRHPVAQSTDCIRGKVGLTKGLHIWEIYWPTRQRGTHAVVGVCTADAPLHSVGYQSLVGSTEQSWGWDLGRNKLYHDSKNCAGVTYPAILKNDEAFLVPDKFLVALDMDEGTLSFIVDQQYLGIAFRGLRGKKLYPIVSAVWGHCEITMRYIGGLDPEPLPLMDLCRRTIRQKI,soluble
14,MREPYYKKLLGIKNYLIRKNYPEELEILIPKYVEENKELRGCIDCLSCLSVCPAREVSDYPGPTFMRQLARFAFDKRDEDGREITAYFENIYNCTTCAKCVEVCPKEIDIVHRAIEKLRALAFSKGYYIENHLEHHHHHH,not soluble
15,MRETIPIKYIDTIEINKLSIQDLEDLSSCKYKLLSAYLIGKIPANKILDADELEIYHNERTKKILAKAIKARKLVIVLKATRLCNLRCTYCHSWAEGPNQTILFSTLIHIVRQILAIPNVNRFEFVWHGGEVTLLKPAFFKKLIWLQEQFKRPEQYITNTMQSNIVNISDEWLIFIKGIGMNVGISLDGIPAVNDKRRVDFRGRGTSDRIAKGIKKLQKYDILYGALIVVDREVYQTDMREMLDYFILIELNGIEFLNIVPDNRLTAGEDIGNNFISYAEFIKFLSALFVIWIKGYREKIHIAIFEDFISVLEHPEKKLSACYWSGNCSQEIITLEPNGDVSPCDKYRGDAGSIYGSLLKTDLAGLLTQSSHNQQAIDEEVAATRKMQHCEWFSICHGGCPHDRVINRRHTKGYNDECCGTGKLLATIKAYLADIR,not soluble
16,MRETRMVYPVFPGETNHYGTLFGGTVLAWMDQAAFVAATRHARKKVVTVHADAVDFKRPVPLGAIVELVARLKEVGRTSMRVEVEMWVEPVKEGEEAYLAARGGFVLVAVDERGRPSPVPPLEGGEAHAPHGP,soluble
17,MRFFVSGMPGVGKTTLAKRIADEVRREGFKVGGIITEEIREGGKRTGFRVIALDTGEIGRLAYVGYGYPRLGKYVIDVEGFERVAIPALSRALRGADLIVIDEIGPMEFKSNEFLKALGLVLKSEKHLLATVHRRLVDRYRPLGEYYWLTPENRNAVFSEILGRIKGLLKEKLEHHHHHH,soluble
18,MRFIADLVHEKKQLVEKAEAILNEAEKAGGSLTKEQEQQFNRYKDRITRINDSIDEELSKIRTSEPILNMPHNPMAREDVSKIPVTKAISKSFRGMFYGNETVSLSNNGFHSMDEFLRTLHSGRADNRLINASMVEGIPEFGGYSVPEEYGAFLMDKSLENEIIRPRATVWAMGSETKKVSAFDGADRTNHLFGGISGEWLEEGQTGTRKTAKLRLIQLKAKKLACFSQASNELIADGMSFEEMLAGALIKGLGWYMDYAFINGTGEGQPLGIINDPALITVNKEASQEPATITYQNVVNMFSRLAPSCFTNAVWLANPSVIPQLLTMTITIGTGGAQIPVFREESGKFTLLGKEVLFTEKCPTLGAKGDLILADLSQYAIGMRKEIALDRSNVPGWMEDMTDYRVIVRVDGQGTWDKPITPKNGATLSWAVALEAR,soluble
19,MRFLDRFFKKKKKEEALWTKCPNCKSLLYVPDLESNLKVCPNCDYHFTLSALERIKYTLDEENPELLFEEILPADPLNFKDTKSYKDRIKKAQEETGLSEAIVITEGHIKGKRAILAVMDFNFIGGSMGSVVGERFFRACERAVETKTPLISFAASGGARMQEGILSLMQMAKTTFGVGLLKEANIPYISVLTNPTMGGVSASFAFLGDLILAEPKALIGFAGPRVIEQTIKQKLPEGFQTAEFLLEKGQIDMVVHRKELKDKLAYFLEVMYYAKRLEHHHHHH,not soluble
20,MRFLIPIIFTTLPLCLQAQEDPCASAPSEAAKIMCKQIHRWDDGARAASKKKKIALPPGMAKGMAAEFAPIASNIYQCMDLPCLCSYLRGTASGNGCTLPNGRPLQKSVRKEYRTLTDDERNRLHAAFRALKNNGEYERIGRIHSQMSAAGGAHSGPAFLPWHREFVKRVEFALRQVDPTVNLPYWDSTLDSRLPRPADTIMFSDYLMGSTGLVNDGPFTNWRTLAGRAQILRAVGAQGAPLSQNDIDFVMRQTQIDQVLSFTAPQQGCPYRTDFNCLEYTHGNVHIFVGGDMFDTATSSNDPSFFLHHAFIDFVWEEWRLARQSRADREIAFPPDNQLCASAQHFGASPMQPFSPMRNIDGLSNKYTDNLYSYAPRPTCQAGGDCGSKFLFCDTSTGAARCVSRIRPGSQCGQFRVNPCFSGICQNGVCVLSSTAPRPTPAPTTPTPQNPVQSQESCFNENQCCASWAASGECSRNTAYMNEWCKASCGVCKPKYRLADDCTDRHTQCSSWSRSGECTKNQLWMTENCRKSCNKCGRSRAQECGGGGTTVTTTTPAPAQQCDNSDGCFNENVCCAVWGLMGECRKNTRYMACNCRVSCGHCYPEDYNYGSCVDYHRSCAGWARVGECQKNPWMAENCRSSCNSCYTQSELRRMCGTTAGSVAPVAQVRQTNPSRQPPRGGWGRDDFGDNGGWGGNGGGGWGNNDPWGGSRWGGGRGGWGGGGWGGGGWGKRSIRAANASISMPSFDPDLL,not soluble
